# T1: H-AAPPA-NH2
# T1 chain: AAPPA
# B1: proline tolerant tripeptidyl peptidase TRI083 (protein)
# chain: QEPSSCKGTLVFEGETFNVFQPDCLRTEYSVDGYTPSVKSGSRIGFGSFLNESASFADQALFEKHFNIPSQNFSVVLINGGTDLPQPPSDANDGEANLDAQTILTIAHPLPITEFITAGSPPYFPDPVEPAGTPNENEPYLQYYEFLLSKSNAEIPQVITNSYGDEEQTVPRSYAVRVCNLIGLLGLRGISVLHSSGDEGVGASCVATNSTTPQFNPIFPATCPYVTSVGGTVSFNPEVAWAGSSGGFSYYFSRPWYQQEAVGTYLEKYVSAETKKYYGPYVDFSGRGFPDVAAHSVSPDYPVFQGGELTPSGGTSAASPVVAAIVALLNDARLREGKPTLGFLNPLIYLHASKGFTDITSGQSEGCNGNNTQTGSPLPGAGFIAGAHWNATKGWDPTTGFGVPNLKKLLALVRF
# Target: T1, H-AAPPA-NH2
protein,measurement,value
B1,"hydrolysis of synthetic substrate AAPPA, LC-MS with label free quantification",over time is able to degrade the peptide AAPPA (FIG. 5) and generate the product AAP (FIG. 6)

# Source: patent US20180295858
